Laboratory results from paper PMC10018343 (Nucleic Acids Research, 2023).
Each block holds one binder with its values, some of them ahead of it.

B1: Bre1^R6BR (Bre1 amino acids 1-212, Rad6-binding region) (domain or fragment, S. cerevisiae, UniProt Q07457 1-212, looked up)
chain: MTAEPATKKIKLELSDPSEPLTQSDVIAFQKEALFRCINRRRVDFEALRKQYELSRRECIDVSRKLANIMALIVTLARFIETFCTDANEKQLCREIAQGDETLIVQRSDSFMKLLTKYGKPNTTDSNTNSNASDHIQELTTELKNLRKSKEELFYENSQLTEEISALKEYYTNIIRKYDRDESFTIKRVFKEDKTDAVKELREDEKESNENN

Assays:
SEC-MALS = molecular target: the molecule itself; test: SEC-MALS
[1] = molecular target: T1, biotinylated Bre1^R6BR (Bre1 amino acids 1-212 with AviTag) (S. cerevisiae, UniProt Q07457 1-212, biotin on the AviTag); test: BLI
T1 sequence (looked up): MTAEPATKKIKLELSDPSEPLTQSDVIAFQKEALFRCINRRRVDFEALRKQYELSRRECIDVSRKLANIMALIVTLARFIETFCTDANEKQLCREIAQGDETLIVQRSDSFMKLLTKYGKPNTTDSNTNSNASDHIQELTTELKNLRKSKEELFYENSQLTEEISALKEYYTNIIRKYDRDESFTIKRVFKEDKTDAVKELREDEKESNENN

[2] = molecular target: B1; test: SEC-MALS

Binder: B1
stoichiometry N (SEC-MALS): 2

Kd [1]: 0.112 µM
B2: His6Rad6 (wild type), purified alone as BLI analyte (enzyme, S. cerevisiae, UniProt P06104 1-172, looked up)
chain: MSTPARRRLMRDFKRMKEDAPPGVSASPLPDNVMVWNAMIIGPADTPYEDGTFRLLLEFDEEYPNKPPHVKFLSEMFHPNVYANGEICLDILQNRWTPTYDVASILTSIQSLFNDPNPASPANVEAATLFKDHKSQYVKRVKETVEKSWEDDMDDMDDDDDDDDDDDDDEAD

stoichiometry N [2]: 0.5 Rad6 per Bre1^R6BR subunit
B3: His6Rad6 (amino acids 1-150), co-expressed with Bre1^R6BR (enzyme, S. cerevisiae, UniProt P06104 1-150, looked up)
chain: MSTPARRRLMRDFKRMKEDAPPGVSASPLPDNVMVWNAMIIGPADTPYEDGTFRLLLEFDEEYPNKPPHVKFLSEMFHPNVYANGEICLDILQNRWTPTYDVASILTSIQSLFNDPNPASPANVEAATLFKDHKSQYVKRVKETVEKSWE
